The values that follow come from the supplement of paper PMC12458215.

The test system of this series is HEK293T. The experiment in a line: plasma membrane surface immunostaining intensity (anti-HA, deep receptor scanning) (arbitrary fluorescence units); higher = higher plasma membrane expression.

± gives the uncertainty stated by the source.

In the case of “MPKLNSTFVTEFLFEGFSSFRRQHKLVFFVVFLTLYLLTLSGNVIIMTIIRLDHHLHTPMYFFLCMLSISETCYTVAIIPHMLSGLLNPHQPIATQSCATQLFFYLTFGINNCFLLTVMGYDRYVAICNPLRYSVIMGKRACIQLASGSLGIGLGMAIVQVTSVFGLPFCDAFVISHFFCDVRHLLKLACTDTTVNEIINFVVSVCVLVLPMGLVFISYVLIISTILKIASAEGQKKAFATCASHLTVVIIHYGCASIIYLKPKSQSSLGQDRLISVTYTHHSPTEPCCVQPEEQGGQRCSAQSRGAKNSVSLMKRGCEGFSFAFINMY [OR10J3]”, the “plasma membrane surface immunostaining intensity” value (GPCR class: A (Olfactory)) came to 164 ± 60.
For the sequence “MWNATPSEEPGFNLTLADLDWDASPGNDSLGDELLQLFPAPLLAGVTATCVALFVVGIAGNLLTMLVVSRFRELRTTTNLYLSSMAFSDLLIFLCMPLDLVRLWQYRPWNFGDLLCKLFQFVSESCTYATVLTITALSVERYFAICFPLRAKVVVTKGRVKLVIFVIWAVAFCSAGPIFVLVGVEHENGTDPWDTNECRPTEFAVRSGLLTVMVWVSSIFFFLPVFCLTVLYSLIGRKLWRRRRGDAVVGASLRDQNHKQTVKMLAVVVFAFILCWLPFHVGRYLFSKSFEPGSLEIAQISQYCNLVSFVLFYLSAAINPILYNIMSKKYRVAVFRLLGFEPFSQRKLSTLKDESSRAWTESSINT [GHSR]”, the “plasma membrane surface immunostaining intensity” value (GPCR class: A) was 1480 ± 520.
On to “MCSGNQTSQNQTASTDFTLTGLFAESKHAALLYTVTFLLFLMALTGNALLILLIHSEPRLHTPMYFFISQLALMDLMYLCVTVPKMLVGQVTGDDTISPSGCGIQMFFYLTLAGAEVFLLAAMAYDRYAAVCRPLHYPLLMNQRVCQLLVSACWVLGMVDGLLLTPITMSFPFCQSRKILSFFCETPALLKLSCSDVSLYKTLMYLCCILMLLAPIMVISSSYTLILHLIHRMNSAAGHRKALATCSSHMIIVLLLFGASFYTYMLPSSYHTAEQDMMVSAFYTIFTPVLNPLIYSLRNKDVTRALRSMMQSRMNQEK [OR2T3]”, for which the “plasma membrane surface immunostaining intensity” value (GPCR class: A (Olfactory)) amounted to 450 ± 200.
As for “MFSPWKISMFLSVREDSVPTTASFSADMLNVTLQGPTLNGTFAQSKCPQVEWLGWLNTIQPPFLWVLFVLATLENIFVLSVFCLHKSSCTVAEIYLGNLAAADLILACGLPFWAITISNNFDWLFGETLCRVVNAIISMNLYSSICFLMLVSIDRYLALVKTMSMGRMRGVRWAKLYSLVIWGCTLLLSSPMLVFRTMKEYSDEGHNVTACVISYPSLIWEVFTNMLLNVVGFLLPLSVITFCTMQIMQVLRNNEMQKFKEIQTERRATVLVLVVLLLFIICWLPFQISTFLDTLHRLGILSSCQDERIIDVITQIASFMAYSNSCLNPLVYVIVGKRFRKKSWEVYQGVCQKGGCRSEPIQMENSMGTLRTSISVERQIHKLQDWAGSRQ [BDKRB2]”, the “plasma membrane surface immunostaining intensity” value (GPCR class: A) was found to be 664 ± 47.
Still for that read-out and setting: the same measure for “MDNASFSEPWPANASGPDPALSCSNASTLAPLPAPLAVAVPVVYAVICAVGLAGNSAVLYVLLRAPRMKTVTNLFILNLAIADELFTLVLPINIADFLLRQWPFGELMCKLIVAIDQYNTFSSLYFLTVMSADRYLVVLATAESRRVAGRTYSAARAVSLAVWGIVTLVVLPFAVFARLDDEQGRRQCVLVFPQPEAFWWRASRLYTLVLGFAIPVSTICVLYTTLLCRLHAMRLDSHAKALERAKKRVTFLVVAILAVCLLCWTPYHLSTVVALTTDLPQTPLVIAISYFITSLSYANSCLNPFLYAFLDASFRRNLRQLITCRAAA [NPBWR1]”: 3950 ± 330.
As for “MLMNYSSATEFYLLGFPGSEELHHILFAIFFFFYLVTLMGNTVIIMIVCVDKRLQSPMYFFLGHLSALEILVTTIIVPVMLWGLLLPGMQTIYLSACVVQLFLYLAVGTTEFALLGAMAVDRYVAVCNPLRYNIIMNRHTCNFVVLVSWVFGFLFQIWPVYVMFQLTYCKSNVVNNFFCDRGQLLKLSCNNTLFTEFILFLMAVFVLFGSLIPTIVSNAYIISTILKIPSSSGRRKSFSTCASHFTCVVIGYGSCLFLYVKPKQTQAADYNWVVSLMVSVVTPFLNPFIFTLRNDKVIEALRDGVKRCCQLFRN [OR9A4]”, the “plasma membrane surface immunostaining intensity” value (GPCR class: A (Olfactory)) came to 185 ± 75.
With “MQALNITPEQFSRLLRDHNLTREQFIALYRLRPLVYTPELPGRAKLALVLTGVLIFALALFGNALVFYVVTRSKAMRTVTNIFICSLALSDLLITFFCIPVTMLQNISDNWLGGAFICKMVPFVQSTAVVTEILTMTCIAVERHQGLVHPFKMKWQYTNRRAFTMLGVVWLVAVIVGSPMWHVQQLEIKYDFLYEKEHICCLEEWTSPVHQKIYTTFILVILFLLPLMVMLILYSKIGYELWIKKRVGDGSVLRTIHGKEMSKIARKKKRAVIMMVTVVALFAVCWAPFHVVHMMIEYSNFEKEYDDVTIKMIFAIVQIIGFSNSICNPIVYAFMNENFKKNVLSAVCYCIVNKTFSPAQRHGNSGITMMRKKAKFSLRENPVEETKGEAFSDGNIEVKLCEQTEEKKKLKRHLALFRSELAENSPLDSGH [QRFPR]”, where the note is “GPCR class: A”, the “plasma membrane surface immunostaining intensity” value was determined as 392 ± 31.
Still for that read-out and setting: as for “MNVSGCPGAGNASQAGGGGGWHPEAVIVPLLFALIFLVGTVGNTLVLAVLLRGGQAVSTTNLFILNLGVADLCFILCCVPFQATIYTLDGWVFGSLLCKAVHFLIFLTMHASSFTLAAVSLDRYLAIRYPLHSRELRTPRNALAAIGLIWGLSLLFSGPYLSYYRQSQLANLTVCHPAWSAPRRRAMDICTFVFSYLLPVLVLGLTYARTLRYLWRAVDPVAAGSGARRAKRKVTRMILIVAALFCLCWMPHHALILCVWFGQFPLTRATYALRILSHLVSYANSCVNPIVYALVSKHFRKGFRTICAGLLGRAPGRASGRVCAAARGTHSGSVLERESSDLLHMSEAAGALRPCPGASQPCILEPCPGPSWQGPKAGDSILTVDVA [GALR2]”, the figure is 2060 ± 420.
As to “MWQEYYFLNVFFPLLKVCCLTINSHVVILLPWECYHLIWKILPYIGTTVGSMEEYNTSSTDFTFMGLFNRKETSGLIFAIISIIFFTALMANGVMIFLIQTDLRLHTPMYFLLSHLSLIDMMYISTIVPKMLVNYLLDQRTISFVGCTAQHFLYLTLVGAEFFLLGLMAYDRYVAICNPLRYPVLMSRRVCWMIIAGSWFGGSLDGFLLTPITMSFPFCNSREINHFFCEAPAVLKLACADTALYETVMYVCCVLMLLIPFSVVLASYARILTTVQCMSSVEGRKKAFATCSSHMTVVSLFYGAAMYTYMLPHSYHKPAQDKVLSVFYTILTPMLNPLIYSLRNKDVTGALKRALGRFKGPQRVSGGVF [OR2T1]”, the “plasma membrane surface immunostaining intensity” value (GPCR class: A (Olfactory)) is 451 ± 170.
For “MNPPSGPRVPPSPTQEPSCMATPAPPSWWDSSQSSISSLGRLPSISPTAPGTWAAAWVPLPTVDVPDHAHYTLGTVILLVGLTGMLGNLTVIYTFCRSRSLRTPANMFIINLAVSDFLMSFTQAPVFFTSSLYKQWLFGETGCEFYAFCGALFGISSMITLTAIALDRYLVITRPLATFGVASKRRAAFVLLGVWLYALAWSLPPFFGWSAYVPEGLLTSCSWDYMSFTPAVRAYTMLLCCFVFFLPLLIIIYCYIFIFRAIRETGRALQTFGACKGNGESLWQRQRLQSECKMAKIMLLVILLFVLSWAPYSAVALVAFAGYAHVLTPYMSSVPAVIAKASAIHNPIIYAITHPKYRVAIAQHLPCLGVLLGVSRRHSRPYPSYRSTHRSTLTSHTSNLSWISIRRRQESLGSESEVGWTHMEAAAVWGAAQQANGRSLYGQGLEDLEAKAPPRPQGHEAETPGKTKGLIPSQDPRM [OPN4]”, the “plasma membrane surface immunostaining intensity” value (GPCR class: A) was found to be 519 ± 36.
The same measure, in the same setting: the same measure for “MAANVSGAKSCPANFLAAADDKLSGFQGDFLWPILVVEFLVAVASNGLALYRFSIRKQRPWHPAVVFSVQLAVSDLLCALTLPPLAAYLYPPKHWRYGEAACRLERFLFTCNLLGSVIFITCISLNRYLGIVHPFFARSHLRPKHAWAVSAAGWVLAALLAMPTLSFSHLKRPQQGAGNCSVARPEACIKCLGTADHGLAAYRAYSLVLAGLGCGLPLLLTLAAYGALGRAVLRSPGMTVAEKLRVAALVASGVALYASSYVPYHIMRVLNVDARRRWSTRCPSFADIAQATAALELGPYVGYQVMRGLMPLAFCVHPLLYMAAVPSLGCCCRHCPGYRDSWNPEDAKSTGQALPLNATAAPKPSEPQSRELSQ [P2RY11]”: 4350 ± 520.
Still for that read-out and setting: the same measure for “MDVVDSLLVNGSNITPPCELGLENETLFCLDQPRPSKEWQPAVQILLYSLIFLLSVLGNTLVITVLIRNKRMRTVTNIFLLSLAVSDLMLCLFCMPFNLIPNLLKDFIFGSAVCKTTTYFMGTSVSVSTFNLVAISLERYGAICKPLQSRVWQTKSHALKVIAATWCLSFTIMTPYPIYSNLVPFTKNNNQTANMCRFLLPNDVMQQSWHTFLLLILFLIPGIVMMVAYGLISLELYQGIKFEASQKKSAKERKPSTTSSGKYEDSDGCYLQKTRPPRKLELRQLSTGSSSRANRIRSNSSAANLMAKKRVIRMLIVIVVLFFLCWMPIFSANAWRAYDTASAERRLSGTPISFILLLSYTSSCVNPIIYCFMNKRFRLGFMATFPCCPNPGPPGARGEVGEEEEGGTTGASLSRFSYSHMSASVPPQ [CCKAR]”: 6447 ± 43.
Turning to “MNPENWTQVTSFVLLGFPSSHLIQFLVFLGLMVTYIVTATGKLLIIVLSWIDQRLHIQMYFFLRNFSFLELLLVTVVVPKMLVVILTGDHTISFVSCIIQSYLYFFLGTTDFFLLAVMSLDRYLAICRPLRYETLMNGHVCSQLVLASWLAGFLWVLCPTVLMASLPFCGPNGIDHFFRDSWPLLRLSCGDTHLLKLVAFMLSTLVLLGSLALTSVSYACILATVLRAPTAAERRKAFSTCASHLTVVVIIYGSSIFLYIRMSEAQSKLLNKGASVLSCIITPLLNPFIFTLRNDKVQQALREALGWPRLTAVMKLRVTSQRK [OR6T1]”, for the setting “GPCR class: A (Olfactory)”, the “plasma membrane surface immunostaining intensity” value was determined as 112 ± 19.
For the sequence “MKMLTRLQVLTLALFSKGFLLSLGDHNFLRREIKIEGDLVLGGLFPINEKGTGTEECGRINEDRGIQRLEAMLFAIDEINKDDYLLPGVKLGVHILDTCSRDTYALEQSLEFVRASLTKVDEAEYMCPDGSYAIQENIPLLIAGVIGGSYSSVSIQVANLLRLFQIPQISYASTSAKLSDKSRYDYFARTVPPDFYQAKAMAEILRFFNWTYVSTVASEGDYGETGIEAFEQEARLRNICIATAEKVGRSNIRKSYDSVIRELLQKPNARVVVLFMRSDDSRELIAAASRANASFTWVASDGWGAQESIIKGSEHVAYGAITLELASQPVRQFDRYFQSLNPYNNHRNPWFRDFWEQKFQCSLQNKRNHRRVCDKHLAIDSSNYEQESKIMFVVNAVYAMAHALHKMQRTLCPNTTKLCDAMKILDGKKLYKDYLLKINFTAPFNPNKDADSIVKFDTFGDGMGRYNVFNFQNVGGKYSYLKVGHWAETLSLDVNSIHWSRNSVPTSQCSDPCAPNEMKNMQPGDVCCWICIPCEPYEYLADEFTCMDCGSGQWPTADLTGCYDLPEDYIRWEDAWAIGPVTIACLGFMCTCMVVTVFIKHNNTPLVKASGRELCYILLFGVGLSYCMTFFFIAKPSPVICALRRLGLGSSFAICYSALLTKTNCIARIFDGVKNGAQRPKFISPSSQVFICLGLILVQIVMVSVWLILEAPGTRRYTLAEKRETVILKCNVKDSSMLISLTYDVILVILCTVYAFKTRKCPENFNEAKFIGFTMYTTCIIWLAFLPIFYVTSSDYRVQTTTMCISVSLSGFVVLGCLFAPKVHIILFQPQKNVVTHRLHLNRFSVSGTGTTYSQSSASTYVPTVCNGREVLDSTTSSL [GRM3]”, where the note is “GPCR class: C”, the “plasma membrane surface immunostaining intensity” value is 6390 ± 16.
Regarding “MNECHYDKHMDFFYNRSNTDTVDDWTGTKLVIVLCVGTFFCLFIFFSNSLVIAAVIKNRKFHFPFYYLLANLAAADFFAGIAYVFLMFNTGPVSKTLTVNRWFLRQGLLDSSLTASLTNLLVIAVERHMSIMRMRVHSNLTKKRVTLLILLVWAIAIFMGAVPTLGWNCLCNISACSSLAPIYSRSYLVFWTVSNLMAFLIMVVVYLRIYVYVKRKTNVLSPHTSGSISRRRTPMKLMKTVMTVLGAFVVCWTPGLVVLLLDGLNCRQCGVQHVKRWFLLLALLNSVVNPIIYSYKDEDMYGTMKKMICCFSQENPERRPSRIPSTVLSRSDTGSQYIEDSISQGAVCNKSTS [LPAR3]”, the “plasma membrane surface immunostaining intensity” value (GPCR class: A) came out at 5905 ± 32.
